Source: patent US20170369935

System: T1, peptide LPETGGG bridging variable regions 4 and 5 (var 4-LPETGGG-var 5)
T1 sequence: LPETGGG

sortase (Chen et. al, 2011)
kligation (sortase-catalyzed transpeptidation, loop opening on gel, room temperature): kligation=11±1.3 min
